Test results taken from patent US20260356982 (published 2026).

T1: FLAG tag
T1 chain: DYKDDDDK


Molecular target: T1, FLAG tag
Test: SPR bivalent

Binder	Kd [nM]
V7 IgG (antibody, V domains shown) VH: QVQLVQSGAEVKKPGASVKVSCKASGYSFTTYTMHWVRQAPGQGLEWMGYINPSSGYAAYNQKFQGRVTMTADKSTSTAYMELSSLRSEDTAVYYCAREKFYGYDYWGQGTTVTVSS VL: DVVMTQSPDSLAVSLGERATINCKSSQSIVHRNGNTYLEWYQLKPGQPPKLLIYKVSNRFSGVPDRFSGSGSGTDFTLTISSLQAEDVAVYYCFQGSHVPYTFGGGTKLEIK	1.3
V4 IgG (antibody, V domains shown) VH: QVQLVQSGAEVKKPGASVKVSCKASGYSFTTYTIHWVRQAPGQGLEWIGYINPSSGYAAYNQKFQGRVTLTADKSTSTAYMELSSLRSEDTAVYYCAREKFYGYDYWGQGTTVTVSS VL: DVVMTQSPDSLAVSLGERATINCKSSQSIVHRNGNTYLEWYQQKPGQPPKLLIYKVSNRFSGVPDRFSGSGSGTDFTLTISSLQAEDVAVYYCFQGSHVPYTFGGGTKLEIK	0.91

Second part, the binder after the results:

Kd [nM]	Binder
0.96	Parental (mouse VH/VL, human constant regions) (antibody, V domains shown) VH: QVQLQQSAGELARPGASVKMSCKASGYSFTTYTIHWVKQRPGQGLEWIGYINPSSGYAAYNQNFKDETTLTADKSSSTAYMQLSSLTSEDSAVYYCAREKFYGYDYWGQGTTLTVSS VL: DVLMTQLPLSLPVSLGDQASISCRSSQSIVHRNGNTYLEWYLLKPGQSPKLLIYKVSNRFSGVPDRFSGSGSGTDFTLKISRVEAEDLGVYYCFQGSHVPYTFGGGTKLEIK
1	V3 IgG (antibody, V domains shown) VH: QVQLVQSGAEVKKPGASVKVSCKASGYSFTTYTIHWVRQAPGQGLEWIGYINPSSGYAAYNQKFQGRVTLTADKSTSTAYMELSSLRSEDTAVYYCAREKFYGYDYWGQGTTVTVSS VL: DVVMTQSPDSLAVSLGERATINCKSSQSIVHRNGNTYLEWYQLKPGQPPKLLIYKVSNRFSGVPDRFSGSGSGTDFTLTISSLQAEDVAVYYCFQGSHVPYTFGGGTKLEIK

Molecular target: T1, FLAG tag
Test: SPR

Kd [nM]	Binder
15	V7 scFv (antibody, V domains shown) VH: QVQLVQSGAEVKKPGASVKVSCKASGYSFTTYTMHWVRQAPGQGLEWMGYINPSSGYAAYNQKFQGRVTMTADKSTSTAYMELSSLRSEDTAVYYCAREKFYGYDYWGQGTTVTVSS VL: DVVMTQSPDSLAVSLGERATINCKSSQSIVHRNGNTYLEWYQLKPGQPPKLLIYKVSNRFSGVPDRFSGSGSGTDFTLTISSLQAEDVAVYYCFQGSHVPYTFGGGTKLEIK
19	V3 scFv (antibody, V domains shown) VH: QVQLVQSGAEVKKPGASVKVSCKASGYSFTTYTIHWVRQAPGQGLEWIGYINPSSGYAAYNQKFQGRVTLTADKSTSTAYMELSSLRSEDTAVYYCAREKFYGYDYWGQGTTVTVSS VL: DVVMTQSPDSLAVSLGERATINCKSSQSIVHRNGNTYLEWYQLKPGQPPKLLIYKVSNRFSGVPDRFSGSGSGTDFTLTISSLQAEDVAVYYCFQGSHVPYTFGGGTKLEIK
22	V4 scFv (antibody, V domains shown) VH: QVQLVQSGAEVKKPGASVKVSCKASGYSFTTYTIHWVRQAPGQGLEWIGYINPSSGYAAYNQKFQGRVTLTADKSTSTAYMELSSLRSEDTAVYYCAREKFYGYDYWGQGTTVTVSS VL: DVVMTQSPDSLAVSLGERATINCKSSQSIVHRNGNTYLEWYQQKPGQPPKLLIYKVSNRFSGVPDRFSGSGSGTDFTLTISSLQAEDVAVYYCFQGSHVPYTFGGGTKLEIK
